Laboratory results published in patent publication US11839642B2, “Anti-angiogenin peptides, compositions, and methods of use” (The Board of Regents of the University of Oklahoma, priority 2018, dated 2023).

Target: T1, angiogenin (Homo sapiens, UniProt P03950)
T1 construct: purchased R&D systems, Inc., Minneapolis
Assay: Affinity-selection (biopanning) of Ph.D.-12 phage library against angiogenin, DNA sequencing of plaques
Format: binding
Settings: after fourth round of affinity-selection
Protocol: Phage affinity-selection (biopanning) procedure was performed by following the standard protocol with minor modifications (FIG. 1). The target protein angiogenin (R&D systems, Inc., Minneapolis) used for biopanning was diluted to 20, 4, 0.8 and 0.16 μg/mL in 0.1 M NaHCO3 (pH=8.6) in the first, second, third and fourth round, respectively. During each round, 400 μL of angiogenin with designated concentration, was added into a well (diameter is 15.6 mm) of the 24 well cell culture plate (Cat. #: 142475, Thermo Fisher Scientific), and incubated overnight at 4° C. with the lid on in a humidified container. Then the supernatant was pipetted out and the plate was firmly slapped face down on a paper towel to remove the residual solution. Afterwards, 500 μL of blocking buffer (5 mg/mL BSA, 0.1M NaHCO3) was added into the well and incubated for 3 h at 4° C., after which the supernatant was discarded. […]
A small amount (5 μL) of the above eluate mixture was diluted 10-fold with PBS buffer. […] The titer was calculated by this equation: titer=1000×N×M pfu/mL, where N and M are the dilution factor and the number of the blue phage plaques on a plate, respectively. […]

T1 sequence (P03950 25-147): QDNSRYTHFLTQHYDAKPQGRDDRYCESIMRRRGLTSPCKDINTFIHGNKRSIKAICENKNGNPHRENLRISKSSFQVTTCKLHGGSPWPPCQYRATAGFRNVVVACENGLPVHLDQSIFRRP

Row | Sequence | repeats of the peptide sequence among 57 sequenced plaques [repeats]
1 | FHHPSIHDRHRH (PEPTIDE (1)..(12) Completely synthesized in the lab - Ph.D.-12 Phage Display Peptide Library) [FH peptide] | 4
2 | WPYWNHHSHNNV (PEPTIDE (1)..(12) Completely synthesized in the lab - Ph.D.-12 Phage Display Peptide Library) [WV peptide] | 11
